From patent US20250026838A1 come the findings set out here.

Test [1] concerns the target Human Galectin-3 (Gal3) protein (human) (UniProt P17931). The test can be described thus: competition ELISA, hGal3 coated; competitor: biotinylated aggregated phospho-tau. (An ELISA detects its analyte on a solid surface through an enzyme-linked reagent.)
Test [2] has the same target. In words: competition ELISA, hGal3 coated; competitor: biotinylated aggregated alpha-synuclein.

Sequence of Human Galectin-3 (Gal3) protein (human) (P17931 whole entry): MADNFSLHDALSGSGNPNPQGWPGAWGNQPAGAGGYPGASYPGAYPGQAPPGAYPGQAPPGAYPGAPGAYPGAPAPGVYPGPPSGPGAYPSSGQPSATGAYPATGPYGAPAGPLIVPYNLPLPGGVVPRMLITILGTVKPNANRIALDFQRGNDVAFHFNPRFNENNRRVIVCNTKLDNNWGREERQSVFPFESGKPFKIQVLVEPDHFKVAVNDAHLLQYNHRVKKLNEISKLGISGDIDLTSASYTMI

B1: 846.1B2-hIgG4(S228P) (antibody, V domains shown)
VH: QIQLVQSGPELKKPGETVKISCKASGYTFTNYGMNWVKQAPGKGLKWMGWINTYTGEPSYADDFKGRFAFSLETSASTAYLQINNLKNEDMATYFCARWGGYAGDYYAMDFWGQGTSVTVSS
VL: NIWLTQSPSSLAVSAGEMVTMTCKSSQSVLYSSNQKNYLAWYQQKPGQSPKLLIYWASTRESGVPDRFTGSGSGTDFSLTISSVQAEDLAVYYCHQYLSSLTFGAGTKLELKR
With B1, the blocking efficacy in test [1] and in test [2] was more than 70% throughout.

B2: 2D10-VH0-VL0-hIgG4(S228P) (antibody, V domains shown)
VH: QFQLQQSGPELVKPGASVKISCKASGYTFTDYYINWVKQRPGQGLEWIGWIYPGSNDTKYNEKFKGKATLTVDTSSSTAYMQLGSLTSEDSAVYFCANYFGCSGWFFDVWGTGTTVTVSS
VL: DIVMTQAAFSNPVTLGTSASISCRSSKSLLHSDGITYLYWYLQRPGQSPQLLIYRMSNLASGVPDRFSGSGSGTDFTLRISRVEAEDVGVYYCAQMIEFPLTFGAGTILELKR
B2: the blocking efficacy in test [1] and in test [2] was more than 70% in each case.

B3: 846.1H5-hIgG4(S228P) (antibody, V domains shown)
VH: EVQLLESGGGLVKPGGSLKLSCAASGFTFSSYAMSWVRQTPEKRLEWVASISSGGDTYYPDSVKGRFTISRDNARNILYLQMSSLRSEDTAMYYCASYGNSLFDYWGQGTTLTVSS
VL: DVVMTQTPLSLPVSLGDQASISCRSSQSLVHNSGNTYLHWYLQRPGQSPNLLIYKVSNRFSGVPDRFSGSGSGTDFTLKISRVAAEDLGVYFCSQSTHVPPTFGGGTKLEIKR
In turn, B3 returned a blocking efficacy in test [2] of more than 70%.
